# Test results reported in patent US20240407995A1, “BIOMINERALIZATION MATERIAL FOR TREATING DENTIN HYPERSENSITIVITY AND PROMOTING EPITAXIAL GROWTH OF ENAMEL, AND USE THEREOF” (SHAANXI NORMAL UNIVERSITY, priority 2022, published 2024).
# Experiment: Film-forming critical line of lysozyme concentration vs cysteine concentration
# Format: physicochemical
# Settings: FIG. 2
# Protocol: In order to study a film-forming critical line between a film-forming protein and cysteine, the inventors prepared different concentrations of film-forming protein solutions and cysteine solutions, and curves were drawn as shown in FIG. 2. […] However, when the protein concentration was 0.2 mg/mL, higher concentration of cysteine was required for film formation.
substance,measurement,value
lysozyme [Lyz],protein concentration at which a small amount of cysteine could form a film,greater than or equal to 0.2 mg/mL
